Assays:
Experiment in all cases: SPR; KD relative to WT C2;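 further: biacore SPR at 37 °C, anti-C2 mAbs captured on an anti-human IgG chip, alanine or serine C2 surface mutants tested, KD from 1:1 fit compared with wild-type C2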
[1] = biological target: T1, human C2 L620A (human, UniProt P06681 21-752)
T1 sequence: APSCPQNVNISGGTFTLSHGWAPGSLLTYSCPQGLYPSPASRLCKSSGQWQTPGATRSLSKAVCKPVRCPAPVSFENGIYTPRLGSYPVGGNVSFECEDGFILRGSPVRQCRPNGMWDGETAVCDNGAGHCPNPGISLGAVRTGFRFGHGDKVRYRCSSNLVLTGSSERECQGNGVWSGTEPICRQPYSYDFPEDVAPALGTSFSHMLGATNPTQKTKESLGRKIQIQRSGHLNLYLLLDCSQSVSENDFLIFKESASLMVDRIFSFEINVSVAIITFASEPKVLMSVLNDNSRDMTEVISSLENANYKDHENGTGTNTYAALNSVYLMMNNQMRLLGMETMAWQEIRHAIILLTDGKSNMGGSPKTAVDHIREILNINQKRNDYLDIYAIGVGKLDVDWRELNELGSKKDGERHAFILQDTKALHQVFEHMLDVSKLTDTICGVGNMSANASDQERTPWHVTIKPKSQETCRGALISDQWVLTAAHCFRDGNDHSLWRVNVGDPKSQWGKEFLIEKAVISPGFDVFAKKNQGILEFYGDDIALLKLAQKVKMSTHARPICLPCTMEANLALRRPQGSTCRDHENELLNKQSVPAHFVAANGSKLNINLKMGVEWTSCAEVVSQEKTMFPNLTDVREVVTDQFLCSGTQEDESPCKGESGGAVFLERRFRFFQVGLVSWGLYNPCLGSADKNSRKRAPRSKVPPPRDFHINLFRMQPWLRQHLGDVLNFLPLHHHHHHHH

[2] = biological target: T2, human C2 F689A (human, UniProt P06681 21-752)
T2 sequence: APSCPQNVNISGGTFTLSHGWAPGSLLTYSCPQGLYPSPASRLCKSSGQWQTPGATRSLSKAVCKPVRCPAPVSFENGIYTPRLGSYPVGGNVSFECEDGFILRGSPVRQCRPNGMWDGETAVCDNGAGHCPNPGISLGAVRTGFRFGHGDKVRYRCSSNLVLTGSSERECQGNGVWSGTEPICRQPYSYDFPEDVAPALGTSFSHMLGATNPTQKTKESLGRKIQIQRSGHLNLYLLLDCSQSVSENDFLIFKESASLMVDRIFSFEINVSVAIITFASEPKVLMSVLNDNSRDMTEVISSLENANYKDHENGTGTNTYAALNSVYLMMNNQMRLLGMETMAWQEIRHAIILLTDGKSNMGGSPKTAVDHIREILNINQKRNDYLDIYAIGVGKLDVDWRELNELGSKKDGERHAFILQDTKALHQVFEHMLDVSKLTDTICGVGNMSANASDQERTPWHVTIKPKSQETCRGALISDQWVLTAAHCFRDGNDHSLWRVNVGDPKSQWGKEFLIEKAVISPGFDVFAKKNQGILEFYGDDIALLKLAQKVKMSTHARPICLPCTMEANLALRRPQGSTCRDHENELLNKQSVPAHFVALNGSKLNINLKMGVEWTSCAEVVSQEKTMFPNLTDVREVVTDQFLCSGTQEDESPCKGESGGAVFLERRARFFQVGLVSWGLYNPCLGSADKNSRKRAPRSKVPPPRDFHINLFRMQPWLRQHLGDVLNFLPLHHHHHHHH

[3] = biological target: T3, human C2 S428A (human, UniProt P06681 21-752)
T3 sequence: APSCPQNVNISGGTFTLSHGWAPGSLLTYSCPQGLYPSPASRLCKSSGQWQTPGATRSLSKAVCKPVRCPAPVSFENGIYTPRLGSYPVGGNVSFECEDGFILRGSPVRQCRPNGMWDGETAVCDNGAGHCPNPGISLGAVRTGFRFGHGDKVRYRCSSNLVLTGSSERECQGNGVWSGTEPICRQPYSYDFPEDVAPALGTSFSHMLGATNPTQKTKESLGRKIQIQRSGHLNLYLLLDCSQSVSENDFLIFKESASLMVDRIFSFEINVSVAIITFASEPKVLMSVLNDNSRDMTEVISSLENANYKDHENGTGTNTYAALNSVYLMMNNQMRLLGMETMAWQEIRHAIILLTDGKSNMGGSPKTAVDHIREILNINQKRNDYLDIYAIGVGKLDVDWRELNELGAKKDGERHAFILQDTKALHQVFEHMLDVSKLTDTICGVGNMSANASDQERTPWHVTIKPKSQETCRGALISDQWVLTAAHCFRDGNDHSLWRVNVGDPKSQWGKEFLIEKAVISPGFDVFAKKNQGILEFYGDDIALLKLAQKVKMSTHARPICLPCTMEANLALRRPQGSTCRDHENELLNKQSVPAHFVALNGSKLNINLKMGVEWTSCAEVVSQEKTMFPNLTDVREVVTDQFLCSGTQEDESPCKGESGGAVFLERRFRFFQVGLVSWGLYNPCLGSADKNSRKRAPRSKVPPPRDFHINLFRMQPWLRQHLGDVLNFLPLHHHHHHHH

[4] = biological target: T4, human C2 N424A (human, UniProt P06681 21-752)
T4 sequence: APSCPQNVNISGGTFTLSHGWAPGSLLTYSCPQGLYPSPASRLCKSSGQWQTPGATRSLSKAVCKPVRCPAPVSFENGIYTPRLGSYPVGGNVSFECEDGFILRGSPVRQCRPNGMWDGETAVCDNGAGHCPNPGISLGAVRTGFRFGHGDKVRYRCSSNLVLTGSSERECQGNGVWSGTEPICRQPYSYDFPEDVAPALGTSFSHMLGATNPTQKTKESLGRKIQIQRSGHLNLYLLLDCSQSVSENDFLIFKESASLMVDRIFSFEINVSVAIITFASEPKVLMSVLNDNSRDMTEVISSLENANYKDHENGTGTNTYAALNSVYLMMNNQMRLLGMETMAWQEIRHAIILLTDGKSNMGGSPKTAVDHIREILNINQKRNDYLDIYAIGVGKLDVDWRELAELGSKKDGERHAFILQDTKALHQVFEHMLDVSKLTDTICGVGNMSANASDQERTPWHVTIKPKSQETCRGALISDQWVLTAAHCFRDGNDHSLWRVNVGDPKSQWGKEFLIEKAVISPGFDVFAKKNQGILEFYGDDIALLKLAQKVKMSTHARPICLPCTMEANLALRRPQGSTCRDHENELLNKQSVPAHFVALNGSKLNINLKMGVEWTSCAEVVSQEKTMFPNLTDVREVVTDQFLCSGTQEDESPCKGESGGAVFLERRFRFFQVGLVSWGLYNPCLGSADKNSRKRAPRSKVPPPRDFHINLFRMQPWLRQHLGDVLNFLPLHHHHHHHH

- Fold diff [1]: 1 fold
- Fold diff [2]: 1 fold
- Fold diff [3]: 2 fold
- Fold diff [4]: 1 fold
B1: RF16-214 (antibody, V domains shown)
VH: EVQLLESGGGLVQPGGSLRLSCAASGFTFSWYQMMWVRQAPGKGLEWVSRIYPSGGGTAYADSVKGRFTISRDNSKNTLYLQMNSLRAEDTAVYYCARDAGYGDNWGQGTLVTVSS
VL: QSALTQPPSVSVSPGQTASITCSGDKLGEKYASWYQQKAGQSPVMVIYQDRKRPSGIPERFSGSNSGNTATLTISGTQAMDEADYYCQAWDTRAVVFGGGTKLTVLG

Reference: US20220332804A1 (CSL INNOVATION, published 2022)
